Experimental findings from article PMC5785985, “Molecular snapshots of APE1 proofreading mismatches and removing DNA damage” are described below.

The target in data set [1] is T1, APE1 (ΔAPE1 C138A) (Homo sapiens, UniProt P27695 44-318, C138A). Kind of data set: X-ray crystallography; 5 mM CaCl2, no metal resolved; Crystallization: 7-14% PEG 20K, 100 mM sodium citrate pH 5.0, 15% glycerol, 5 mM CaCl2, 20 °C; 0.56 mM DNA, 10-12 mg/ml APE1; data at 100 K. Conditions: protein: recombinant; nicked duplex, three strands 1:1:1, blunt ends, C/T mismatch at 3' end of nick.
T1 sequence (P27695 44-318 C138A): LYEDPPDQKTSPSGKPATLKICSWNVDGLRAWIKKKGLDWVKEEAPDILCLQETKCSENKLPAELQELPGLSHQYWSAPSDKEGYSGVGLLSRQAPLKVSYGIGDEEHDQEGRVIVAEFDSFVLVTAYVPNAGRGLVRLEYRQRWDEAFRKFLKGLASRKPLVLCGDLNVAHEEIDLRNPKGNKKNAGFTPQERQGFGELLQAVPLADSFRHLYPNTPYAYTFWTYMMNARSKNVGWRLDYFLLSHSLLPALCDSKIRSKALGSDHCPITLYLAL

The target of data set [2] is T1, APE1 (ΔAPE1 C138A). Nature of the data set: X-ray crystallography (2.10 Å); no metal resolved; Crystallization: 7-14% PEG 20K, 100 mM sodium citrate pH 5.0, 15% glycerol, 5 mM CaCl2, 20 °C; 0.56 mM DNA, 10-12 mg/ml APE1; data at 100 K. Conditions: protein: recombinant; nicked duplex, three strands 1:1:1, blunt ends, C/T mismatch at 3' end of nick.
Data set [3] concerns the target T1, APE1 (ΔAPE1 C138A). Nature of the data set: X-ray crystallography (2.6 Å); Crystallization: 7-14% PEG 20K, 100 mM sodium citrate pH 5.0, 15% glycerol, 5 mM CaCl2, 20 °C; 0.56 mM DNA, 10-12 mg/ml APE1; data at 100 K. The note with it: protein: recombinant; nicked duplex, three strands 1:1:1, blunt ends, fully paired.
For data set [4], the target named is APE1 F266A (ΔAPE1 C138A F266A) (Homo sapiens, UniProt P27695 44-318, C138A;F266A). Nature of the data set: X-ray crystallography; Crystallization: 7-14% PEG 20K, 100 mM sodium citrate pH 5.0, 15% glycerol, 5 mM CaCl2, 20 °C; 0.56 mM DNA, 10-12 mg/ml APE1; data at 100 K. The note with it: protein: recombinant; nicked duplex, three strands 1:1:1, blunt ends, C/T mismatch at 3' end of nick.
APE1 F266A (ΔAPE1 C138A F266A), sequence (P27695 44-318 C138A/F266A): as the sequence (P27695 44-318 C138A) above, with F223A counted along it

In data set [5] the target is T1, APE1 (ΔAPE1 C138A). Nature of the data set: X-ray crystallography (2.3 Å); MgCl2 soak 2.5 h, no metal resolved; Crystallization: 7-14% PEG 20K, 100 mM sodium citrate pH 5.0, 15% glycerol, 5 mM CaCl2, 20 °C; 0.56 mM DNA, 10-12 mg/ml APE1; data at 100 K. Conditions: protein: recombinant; 1-nt gapped duplex, three strands, blunt ends.

B1: 21-mer nicked duplex, 3' C/T mismatch (dsDNA)
DNA 1: GGATCCGTCGATCGCATCAGC
DNA 2: GCTGATGCGC
DNA 3: TCGACGGATCC
modifications: 5'-phosphate on strand 3
On to B1, for which, in the data set with APE1 (ΔAPE1 C138A) [1], the binding result was “binds”.

B2: 21-mer nicked duplex, 3' C/T mismatch, phosphorothioate (dsDNA)
DNA 1: GGATCCGTCGATCGCATCAGC
DNA 2: GCTGATGCGC
DNA 3: TCGACGGATCC
modifications: phosphorothioate 5' to the 3'-terminal C of strand 2 (Sp and Rp); 5'-phosphate on strand 3
In the case of B2, the binding result in the data set with APE1 (ΔAPE1 C138A) [2] is on record as “binds”.

B3: 21-mer nicked duplex, 3' C/G match (dsDNA)
DNA 1: GGATCCGTCGAGCGCATCAGC
DNA 2: GCTGATGCGC
DNA 3: TCGACGGATCC
modifications: 5'-phosphate on strand 3
As for B3, the binding result in the data set with APE1 (ΔAPE1 C138A) [3] was “binds”.

B4: 21-mer nicked duplex, 3' C/T mismatch (F266A crystal) (dsDNA)
DNA 1: GGATCCGTCGATCGCATCAGC
DNA 2: GCTGATGCGC
DNA 3: TCGACGGATCC
modifications: 5'-phosphate on strand 3; phosphorothioate not stated for this crystal
B4: the binding result in data set [4] is “binds”.

B5: 21-mer duplex with 1-nt gap (exo product) (dsDNA)
DNA 1: GGATCCGTCGATCGCATCAGC
DNA 2: GCTGATGCG
DNA 3: TCGACGGATCC
modifications: 5'-phosphate on strand 3; 3'-OH on strand 2
On to B5, for which the binding result with APE1 (ΔAPE1 C138A) [5] is reported as “binds”.
